According to publication PMC5484772:
Bridges are numbered along the chain shown (N, C = ends). Where no end group is shown, it is not given here.

How the values were obtained:
Assay in all cases: SPR; competition in solution, Biacore T200: 796 nM (50 ug/ml) purified DiCo mixed with PfRon2L in serial 1:3 dilutions from 12.5 uM to 5.7 nM, incubated 4 h at room temperature; residual binding of free DiCo read on biotinylated PfRon2L immobilised on a Series S streptavidin chip; buffer control set to 100%
DiCo-Mix = biological target: DiCo-Mix
[1] = biological target: PfAMA1 diversity covering variant DiCo3
[2] = biological target: PfAMA1 diversity covering variant DiCo2
[3] = biological target: PfAMA1 diversity covering variant DiCo1

B1: PfRon2L (peptide)
peptide: DITQQAKDIGAGPVASCFTTRMSPPQQICLNSVVNTALS
modifications: disulfide 17-29 (inferred)
Binder B1 has a PfRon2L concentration at full equilibrium saturation of 796 nM DiCo (DiCo-Mix) of 12.5 µM, a PfRon2L concentration for almost full saturation of 796 nM DiCo (DiCo-Mix) greater than 1000 nM and a PfRon2L concentration at full equilibrium saturation of 796 nM DiCo [1] of 12.5 µM. The PfRon2L concentration for equilibrium saturation of 796 nM DiCo [1] was greater than 10 µM, the PfRon2L concentration at full equilibrium saturation of 796 nM DiCo [2] was 12.5 µM and the PfRon2L concentration for almost full saturation of 796 nM DiCo [2] was greater than 1000 nM. The PfRon2L concentration at full equilibrium saturation of 796 nM DiCo [3] was 12.5 µM and the PfRon2L concentration for almost full saturation of 796 nM DiCo [3] was greater than 1000 nM.
